Experimental data taken from US5614400.

Key:
[1] = target: [1-^14 C]14:0-ACP (myristoyl-acyl carrier protein made with Escherichia coli ACP) (Escherichia coli) (UniProt P0A6A8)
[2] = target: [1-^14 C]16:0-ACP (palmitoyl-acyl carrier protein made with Escherichia coli ACP) (Escherichia coli) (UniProt P0A6A8)

100,000×g supernatant of a T. alata endosperm homogenate (soluble Δ^6 16:0-ACP desaturase activity) (pool or library)
Δ^6 monounsaturated product, specific activity (pmol/min/mg protein) [1]: 13 | Δ^6 monounsaturated product, specific activity (pmol/min/mg protein) [2]: 99
